Experimental data published in patent publication US20070031331A1.

How the values were obtained:
human CD20 (human) [1] = biological target: human CD20 (human) (UniProt P11836); experiment: cell-based or functional assay
human CD20 (human) [2] = biological target: human CD20 (human) (UniProt P11836); experiment: Scatchard analysis, cold antibody against 125I-2H7.v16 on WIL2-S cells, n=3

Sequence of human CD20 (human) (P11836 whole entry): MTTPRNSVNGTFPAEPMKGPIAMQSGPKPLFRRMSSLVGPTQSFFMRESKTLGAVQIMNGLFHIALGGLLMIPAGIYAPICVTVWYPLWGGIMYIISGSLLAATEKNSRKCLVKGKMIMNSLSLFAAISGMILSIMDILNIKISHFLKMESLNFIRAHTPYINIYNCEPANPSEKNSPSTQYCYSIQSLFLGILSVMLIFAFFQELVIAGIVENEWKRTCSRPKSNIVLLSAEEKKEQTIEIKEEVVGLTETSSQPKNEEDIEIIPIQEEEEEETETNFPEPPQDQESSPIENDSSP

ADCC: EC50(variant)/EC50(2H7.v16) (human CD20 (human) [1]): 5.3
ADCC: EC50(variant)/EC50(RITUXAN®) (human CD20 (human) [1]): 1
CDC: EC50(variant)/EC50(RITUXAN®) (human CD20 (human) [1]): 1
Kd (human CD20 (human) [2]): 0.99 nM
Substance: RITUXAN® (rituximab) (antibody)
